Results from patent publication US20250376505A1 (UNIVERSITE DE STRASBOURG, published 2025).

How the values were obtained:
[1] = target: T1, VP1 pentamer of BKV genotype IV (BK virus genotype IV, UniProt P14996 30-300); assay: ELISA, coated VP1 pentamer
T1 construct: also called VP1 pentamers of genotype IV; GIV; not shown: N-terminal His-tag of pESPRIT002; C-terminal biotin acceptor peptide (BAP) of pESPRIT002

[2] = target: T2, VP1 pentamer of BKV genotype II (BK virus genotype II, UniProt P14996 30-300); assay: ELISA, coated VP1 pentamer
T2 construct: also called VP1 pentamers of genotype II; GII; not shown: N-terminal His-tag of pESPRIT002; C-terminal biotin acceptor peptide (BAP) of pESPRIT002

[3] = target: VP1 capsid protein on BKV genotype II pseudovirions (GBR-12; AB263920) (BK virus genotype II (GBR-12)); assay: cell-based or functional assay
[4] = target: VP1 capsid protein on BKV genotype Ia pseudovirions (BK-D; JF894228) (BK virus genotype Ia (BK-D)); assay: cell-based or functional assay
[5] = target: VP1 capsid protein on BKV genotype IVc2 pseudovirions (A-66H; AB369093) (BK virus genotype IVc2 (A-66H)); assay: cell-based or functional assay

Binder | EC50 [1] [µg/mL] | EC50 [2] [µg/mL] | Neutralization PSV IC50 [3] [µg/mL] | Neutralization PSV IC50 [4] [µg/mL] | Neutralization PSV IC50 [5] [µg/mL] | binding result [1] | binding result [2]
D9P6 (antibody, V domains shown) VH: QLQLQESGPGLVKPSETLSLTCTVSGTYISTNSYYWGWIRQPPGKGLEWIGSIEYGGSTYYNPSLRSRLTISVDTSKNHFSLRLSSVTAADTAMYYCASANSHYYDSGGYCAPSALDIWGQGTMVTVSS VL: EIVMTQSPATLSVSPGERVTLSCRASQSASSHLAWYQHKRGQAPRLLIYAASSRATGIPARFSGRGSGTEFTLTISSLQSEDFAVYYCQQYNNWPPGYSFGQGTKLEIK | 4 | 9 | > 50 | > 50 | > 50 | – | –
B5P4 (antibody, V domains shown) VH: QVQLVQSGAEVKKPGSSVKVSCKASGGRFSRYGSSWVRQAPGQGLEWMGGIIPLLGTANYAQKFQDRVSITADESTSTVYMHLSSLRSEDTAVYYCATARREYDRPGAEYFIQWGQGTLVTVSS VL: EIVMTQSPATLSVSPGERATLSCRASQSVSTNLAWYQQKPGQAPRLLIYDAFLRATGIPARFSGSGSGTEFTLTISSLQPEDFAVYYCQQYNYWPPLTFGGGTKVEIK | – | – | – | – | – | no binding (tested: 50 µg/mL (starting concentration)) | no binding (tested: 50 µg/mL (starting concentration))
C9P1 (antibody, V domains shown) VH: EVQLLESGGGLVQPGGSLRLSCVTSGFTFSSYSMTWVRQAPGKGLEWVSYISSSSRTISYADSVQGRFTISRDNAKNVLYLQMNSLRAEDTAVYYCARQAVAHFDYWGQGTLVTVSS VL: EIVLTQSPGTLSLSPGERATLSCRASQRVSSNYLAWYQQKPGQAPRLLIYGASSRATGIPDRFSGSGSGTDFTLTISRLEPEDFAVYYCQQYGTSPRSFGQGTKVEIK | – | – | – | – | – | no binding (tested: 50 µg/mL (starting concentration)) | no binding (tested: 50 µg/mL (starting concentration))
D11P7 (antibody, V domains shown) VH: EVQLVESGGGLVQPGGSLRLSCAASGFTFRSYTMDWVRQAPGKGLEWVSCISGSSNHKYYADSVRGRFTISRDNAKNSLFLQMNSLRAEDSAVYYCAREDDILTPLYGMDVWGPGTTVTVSS VL: QSALTQPASVSGSPGQSITISCTGTSSDVGAYNYVSWYRLRPGKDPHLIIYDVSHRPAGVSNRFSGSKSGNTASLTISGLQAEDEDEYYCCSYAHRGTPLFGGGTKLTVL | – | – | – | – | – | no binding (tested: 50 µg/mL (starting concentration)) | no binding (tested: 50 µg/mL (starting concentration))
E10P2 (antibody, V domains shown) VH: EVQLLESGGALVQPGGSLRLSCAASGFTFRSYAMNWVRQAPGKGLEWVSSLSSSGTTTYYADSVKGRFTISRDNSKNTMYLQMDSLRGEDTAVYYCAKDRNAQWLGSEPLDPWGQGTLVTVSS VL: EIVLTQSPGTLSLSPGERATLSCRASQSVSSSYLAWYQQKPGQAPRLLIYGASSRATGIPDRFSGSGSGTDFTLTISSLQPDDFAIYYCQQAYTFPWTFGQGTKLEIK | – | – | – | – | – | no binding (tested: 50 µg/mL (starting concentration)) | no binding (tested: 50 µg/mL (starting concentration))
